What was measured:
AncSZ = test: phosphorylation enrichment, bacterial display (enrichment ratio); higher = better substrate or ligand; peptides without Tyr show the background
EPHB1 = EPHB1 (UniProt P54762); test: as above
EPHB2 = EPHB2 (UniProt P29323); test: as above
FGFR1 = FGFR1 (UniProt P11362); test: as above
FGFR3 = FGFR3 (UniProt P22607); test: as above
Fer (mouse) = test: as above
Fes = Fes (UniProt P07332); test: as above
Fyn = Fyn (UniProt P06241); test: as above
Hck = Hck (UniProt P08631); test: as above
Sequence of Hck (P08631 whole entry, looked up): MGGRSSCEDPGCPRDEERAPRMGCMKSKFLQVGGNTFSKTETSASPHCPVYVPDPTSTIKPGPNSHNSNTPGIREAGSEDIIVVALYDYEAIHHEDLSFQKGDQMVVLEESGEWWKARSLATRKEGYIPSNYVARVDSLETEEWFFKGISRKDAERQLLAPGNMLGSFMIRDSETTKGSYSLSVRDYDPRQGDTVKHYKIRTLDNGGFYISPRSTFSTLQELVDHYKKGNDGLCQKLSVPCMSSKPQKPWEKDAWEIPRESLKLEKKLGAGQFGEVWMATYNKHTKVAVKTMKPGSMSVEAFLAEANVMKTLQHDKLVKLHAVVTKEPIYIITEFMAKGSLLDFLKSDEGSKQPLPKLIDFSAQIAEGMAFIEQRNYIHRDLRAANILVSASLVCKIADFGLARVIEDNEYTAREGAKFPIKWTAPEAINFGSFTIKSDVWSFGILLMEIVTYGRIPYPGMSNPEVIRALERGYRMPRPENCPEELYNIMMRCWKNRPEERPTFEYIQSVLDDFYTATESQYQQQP

Jak2 = Jak2 (UniProt O60674); test: as above
Sequence of Jak2 (O60674 whole entry, looked up): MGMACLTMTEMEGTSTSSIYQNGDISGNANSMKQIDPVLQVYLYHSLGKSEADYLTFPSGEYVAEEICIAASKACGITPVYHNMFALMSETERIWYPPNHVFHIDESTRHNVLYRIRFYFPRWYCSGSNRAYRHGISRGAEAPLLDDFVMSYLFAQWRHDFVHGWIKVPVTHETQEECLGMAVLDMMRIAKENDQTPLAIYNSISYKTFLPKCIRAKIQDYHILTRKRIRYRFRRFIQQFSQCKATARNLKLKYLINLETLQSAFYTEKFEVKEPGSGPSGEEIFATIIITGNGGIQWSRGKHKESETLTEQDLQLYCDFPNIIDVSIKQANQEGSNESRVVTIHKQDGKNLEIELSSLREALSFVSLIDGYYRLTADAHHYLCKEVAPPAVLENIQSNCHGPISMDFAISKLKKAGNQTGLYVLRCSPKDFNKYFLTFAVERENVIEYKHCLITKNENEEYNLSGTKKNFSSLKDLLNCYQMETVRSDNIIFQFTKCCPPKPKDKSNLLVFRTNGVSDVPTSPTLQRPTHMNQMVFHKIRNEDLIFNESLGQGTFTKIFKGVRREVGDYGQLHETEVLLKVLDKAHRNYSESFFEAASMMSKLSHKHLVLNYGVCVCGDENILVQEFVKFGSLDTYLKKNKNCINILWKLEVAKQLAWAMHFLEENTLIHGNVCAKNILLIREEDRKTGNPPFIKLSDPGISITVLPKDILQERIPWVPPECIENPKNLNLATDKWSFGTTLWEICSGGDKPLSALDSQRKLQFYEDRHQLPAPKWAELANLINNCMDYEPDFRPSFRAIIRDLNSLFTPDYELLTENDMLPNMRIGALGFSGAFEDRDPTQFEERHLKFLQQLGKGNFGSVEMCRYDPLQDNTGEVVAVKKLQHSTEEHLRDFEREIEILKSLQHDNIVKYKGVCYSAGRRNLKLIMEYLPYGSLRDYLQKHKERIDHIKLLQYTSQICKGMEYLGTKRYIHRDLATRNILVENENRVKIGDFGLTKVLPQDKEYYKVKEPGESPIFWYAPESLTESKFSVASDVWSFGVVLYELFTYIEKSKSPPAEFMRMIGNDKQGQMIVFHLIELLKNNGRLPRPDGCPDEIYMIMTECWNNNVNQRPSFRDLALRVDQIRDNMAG

MERTK = MERTK (UniProt Q12866); test: as above
Sequence of MERTK (Q12866 whole entry, looked up): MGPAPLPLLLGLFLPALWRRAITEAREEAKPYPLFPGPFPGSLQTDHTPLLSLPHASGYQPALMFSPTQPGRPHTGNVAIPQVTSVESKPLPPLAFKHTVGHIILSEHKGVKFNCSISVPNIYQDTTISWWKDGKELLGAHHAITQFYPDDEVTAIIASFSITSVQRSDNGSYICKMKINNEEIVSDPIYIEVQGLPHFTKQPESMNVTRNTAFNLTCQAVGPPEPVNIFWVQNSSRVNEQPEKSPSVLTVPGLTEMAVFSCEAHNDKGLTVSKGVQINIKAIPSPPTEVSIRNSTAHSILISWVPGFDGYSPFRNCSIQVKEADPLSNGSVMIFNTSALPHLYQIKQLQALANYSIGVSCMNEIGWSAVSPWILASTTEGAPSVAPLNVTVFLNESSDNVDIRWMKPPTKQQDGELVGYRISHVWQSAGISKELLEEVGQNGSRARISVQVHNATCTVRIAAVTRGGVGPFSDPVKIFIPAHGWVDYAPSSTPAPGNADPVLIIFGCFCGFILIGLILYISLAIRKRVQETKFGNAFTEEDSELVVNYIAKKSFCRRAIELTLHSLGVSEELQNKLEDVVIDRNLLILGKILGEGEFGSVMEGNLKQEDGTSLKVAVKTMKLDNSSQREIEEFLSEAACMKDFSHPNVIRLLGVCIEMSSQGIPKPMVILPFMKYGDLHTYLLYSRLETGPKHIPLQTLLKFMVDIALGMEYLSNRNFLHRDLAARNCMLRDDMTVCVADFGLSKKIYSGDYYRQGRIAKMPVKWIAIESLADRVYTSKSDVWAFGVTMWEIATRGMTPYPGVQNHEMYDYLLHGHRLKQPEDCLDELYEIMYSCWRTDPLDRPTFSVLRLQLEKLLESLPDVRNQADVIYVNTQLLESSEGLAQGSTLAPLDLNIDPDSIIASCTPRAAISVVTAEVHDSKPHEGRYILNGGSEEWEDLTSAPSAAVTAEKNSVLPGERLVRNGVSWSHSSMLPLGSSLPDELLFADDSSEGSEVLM

c-Abl (mouse) = test: as above
c-Src = test: as above
Grb2 SH2 = Grb2 SH2 (UniProt P62993); test: SH2 binding enrichment of the phosphorylated peptide, bacterial display (enrichment ratio); higher = better substrate or ligand; peptides without Tyr show the background
SHP2-C SH2 = test: as above
c-Src SH2 = test: as above
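Throughout, for SH2 binding enrichment of the phosphorylated peptide, bacterial display: peptide library displayed on the E. coli surface as eCPX fusions, selected cells deep-sequenced, score is each peptide's frequency after selection divided by its frequency in the input.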
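Throughout, for phosphorylation enrichment, bacterial display: 11-residue human phosphosite peptides and single-mutation variants displayed on the E. coli surface, counted by deep sequencing, each peptide's frequency after selection divided by its frequency in the unselected input library; frequency after pTyr selection over input frequency; kinase dosed for 20-30% of maximal phosphorylation in three min.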

Sequence of EPHB1 (P54762 whole entry, looked up): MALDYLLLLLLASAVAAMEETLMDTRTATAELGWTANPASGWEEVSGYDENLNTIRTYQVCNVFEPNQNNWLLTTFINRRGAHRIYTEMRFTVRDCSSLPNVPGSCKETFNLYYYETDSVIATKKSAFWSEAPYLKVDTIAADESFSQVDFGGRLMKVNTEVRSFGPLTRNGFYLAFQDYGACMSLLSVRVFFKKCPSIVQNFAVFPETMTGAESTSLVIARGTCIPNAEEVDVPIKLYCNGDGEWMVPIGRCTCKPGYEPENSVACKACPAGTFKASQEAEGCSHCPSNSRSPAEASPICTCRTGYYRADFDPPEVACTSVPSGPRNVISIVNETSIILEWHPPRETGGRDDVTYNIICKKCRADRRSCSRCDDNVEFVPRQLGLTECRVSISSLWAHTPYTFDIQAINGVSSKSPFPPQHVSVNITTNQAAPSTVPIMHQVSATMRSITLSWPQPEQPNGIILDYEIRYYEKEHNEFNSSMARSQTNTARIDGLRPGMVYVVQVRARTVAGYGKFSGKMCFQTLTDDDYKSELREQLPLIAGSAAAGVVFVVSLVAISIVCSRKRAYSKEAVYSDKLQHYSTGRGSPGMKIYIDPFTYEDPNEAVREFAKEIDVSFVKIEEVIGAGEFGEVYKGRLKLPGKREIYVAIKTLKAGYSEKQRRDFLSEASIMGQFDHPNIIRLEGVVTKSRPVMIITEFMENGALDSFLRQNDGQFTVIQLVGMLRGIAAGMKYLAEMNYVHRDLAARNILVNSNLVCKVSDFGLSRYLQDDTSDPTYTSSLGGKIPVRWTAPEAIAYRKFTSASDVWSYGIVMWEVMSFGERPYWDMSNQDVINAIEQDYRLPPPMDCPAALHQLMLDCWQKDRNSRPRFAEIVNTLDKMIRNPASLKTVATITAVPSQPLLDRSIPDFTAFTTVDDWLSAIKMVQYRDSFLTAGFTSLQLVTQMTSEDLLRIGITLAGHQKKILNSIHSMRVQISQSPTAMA
Sequence of FGFR3 (P22607 whole entry, looked up): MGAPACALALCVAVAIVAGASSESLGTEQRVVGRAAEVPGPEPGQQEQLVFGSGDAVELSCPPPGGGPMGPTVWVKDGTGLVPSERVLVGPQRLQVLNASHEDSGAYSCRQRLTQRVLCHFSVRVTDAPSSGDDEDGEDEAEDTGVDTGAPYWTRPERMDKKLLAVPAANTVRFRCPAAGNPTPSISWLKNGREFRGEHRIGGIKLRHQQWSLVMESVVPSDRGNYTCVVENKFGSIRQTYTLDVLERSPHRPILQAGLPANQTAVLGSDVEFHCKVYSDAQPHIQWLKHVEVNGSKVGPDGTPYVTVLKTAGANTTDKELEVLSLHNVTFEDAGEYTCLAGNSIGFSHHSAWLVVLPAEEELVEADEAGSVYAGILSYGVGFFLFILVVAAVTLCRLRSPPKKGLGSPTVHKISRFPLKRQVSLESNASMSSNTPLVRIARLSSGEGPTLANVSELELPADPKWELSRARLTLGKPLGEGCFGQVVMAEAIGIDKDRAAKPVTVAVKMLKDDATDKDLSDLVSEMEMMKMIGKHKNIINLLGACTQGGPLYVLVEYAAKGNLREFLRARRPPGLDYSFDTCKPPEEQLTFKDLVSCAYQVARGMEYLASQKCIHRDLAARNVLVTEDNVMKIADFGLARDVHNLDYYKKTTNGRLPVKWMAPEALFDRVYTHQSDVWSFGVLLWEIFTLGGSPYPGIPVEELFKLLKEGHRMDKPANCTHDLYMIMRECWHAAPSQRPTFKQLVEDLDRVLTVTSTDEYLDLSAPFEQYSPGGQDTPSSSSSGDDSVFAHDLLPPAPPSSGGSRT
Sequence of Fyn (P06241 whole entry, looked up): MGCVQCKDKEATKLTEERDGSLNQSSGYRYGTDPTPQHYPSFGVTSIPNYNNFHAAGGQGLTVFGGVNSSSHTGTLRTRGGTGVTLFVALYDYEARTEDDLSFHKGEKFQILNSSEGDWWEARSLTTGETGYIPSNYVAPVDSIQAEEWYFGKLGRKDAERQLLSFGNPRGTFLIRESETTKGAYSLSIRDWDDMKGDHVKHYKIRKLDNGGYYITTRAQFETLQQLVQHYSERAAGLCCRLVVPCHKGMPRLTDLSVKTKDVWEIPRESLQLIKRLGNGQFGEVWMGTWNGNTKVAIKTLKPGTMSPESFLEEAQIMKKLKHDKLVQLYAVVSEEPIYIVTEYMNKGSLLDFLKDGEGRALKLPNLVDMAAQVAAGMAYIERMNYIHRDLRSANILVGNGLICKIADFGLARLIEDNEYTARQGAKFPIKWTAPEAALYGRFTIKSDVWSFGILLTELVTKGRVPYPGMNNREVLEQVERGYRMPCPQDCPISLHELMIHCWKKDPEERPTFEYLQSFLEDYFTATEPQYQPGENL

Row | Sequence | SH2 binding enrichment (Grb2 SH2) | SH2 binding enrichment (SHP2-C SH2) | SH2 binding enrichment (c-Src SH2) | phosphorylation enrichment (AncSZ) | phosphorylation enrichment (EPHB1) | phosphorylation enrichment (EPHB2) | phosphorylation enrichment (FGFR1) | phosphorylation enrichment (FGFR3) | phosphorylation enrichment (Fer (mouse)) | phosphorylation enrichment (Fes) | phosphorylation enrichment (Fyn) | phosphorylation enrichment (Hck) | phosphorylation enrichment (Jak2) | phosphorylation enrichment (MERTK) | phosphorylation enrichment (c-Abl (mouse)) | phosphorylation enrichment (c-Src)
1 | RHRSGYVLIAM [EFR3A_Y73] | 2.09 | 2.72 | 1.73 | 1.31 | 0.307 | 0.708 | 0.737 | 0.773 | 1.1 | 1.37 | 0.605 | 0.638 | 0.79 | 0.475 | 0.528 | 0.284
2 | RKIMGYSIRTI [IDS_Y490_I485R] | 0.944 | 0.718 | 0.654 | 0.699 | 0.676 | 0.556 | 0.664 | 0.524 | 0.619 | 0.796 | 0.591 | 0.624 | 0.62 | 0.535 | 0.759 | 0.666
3 | RLLRGYDQSAY [HLA-C_Y137] | 0.858 | 0.83 | 0.645 | 0.57 | 0.569 | 0.465 | 0.394 | 0.593 | 0.52 | 0.826 | 0.465 | 0.527 | 0.576 | 0.36 | 0.468 | 0.416
4 | RLLRGYDQYAY [HLA-B_Y137_H137Y] | 1.26 | 0.954 | 2.15 | 0.865 | 0.636 | 0.821 | 0.548 | 0.508 | 0.476 | 0.924 | 0.518 | 0.575 | 0.844 | 0.596 | 0.659 | 0.738
5 | RLLVLYPWTQR [HBB_Y36_V35L] | 1.77 | 1.75 | 1.52 | 1.42 | 0.681 | 0.98 | 0.886 | 0.987 | 0.594 | 1.26 | 0.791 | 0.782 | 0.702 | 0.541 | 0.558 | 0.366
6 | RLLVVYPWTER [HBB_Y36_Q40E] | 2.1 | 2.29 | 1.55 | 1.16 | 0.345 | 0.572 | 0.513 | 0.58 | 0.37 | 1.21 | 0.472 | 0.618 | 1.03 | 0.324 | 0.612 | 0.52
7 | RLVTRYIFNRE [HLA-DQB1_Y62_Y58L_YF] | 0.851 | 0.728 | 0.5 | 0.639 | 0.477 | 0.415 | 0.579 | 0.695 | 0.54 | 0.815 | 0.553 | 0.445 | 0.556 | 0.652 | 0.51 | 0.462
8 | RQQQDYWLKDV [ANPEP_Y600_I603K] | 1.01 | 0.635 | 0.675 | 1.07 | 0.484 | 0.556 | 0.71 | 0.741 | 0.495 | 0.911 | 0.305 | 0.322 | 1.25 | 0.52 | 0.662 | 0.564
9 | RRERDYTNLPS [CSF1R_Y923] | 0.519 | 0.485 | 0.486 | 2.88 | 0.447 | 0.548 | 0.493 | 0.541 | 0.474 | 0.561 | 0.651 | 0.62 | 0.628 | 0.558 | 0.692 | 0.668
10 | RRNTYYASIAK [ACADM_Y353] | 0.889 | 1.66 | 0.953 | 0.902 | 0.702 | 0.541 | 0.536 | 0.76 | 0.611 | 0.889 | 0.762 | 0.853 | 1.12 | 1.13 | 0.939 | 0.81
11 | RRSKMYLKTRS [LPL_Y329_S325R] | 0.981 | 0.647 | 0.319 | 0.728 | 0.448 | 0.845 | 0.599 | 0.571 | 0.514 | 0.709 | 0.708 | 0.602 | 0.889 | 0.659 | 0.578 | 1.03

Further lines, with some results ahead:

Row | SH2 binding enrichment (Grb2 SH2) | SH2 binding enrichment (SHP2-C SH2) | SH2 binding enrichment (c-Src SH2) | Sequence | phosphorylation enrichment (AncSZ) | phosphorylation enrichment (EPHB1) | phosphorylation enrichment (EPHB2) | phosphorylation enrichment (FGFR1) | phosphorylation enrichment (FGFR3) | phosphorylation enrichment (Fer (mouse)) | phosphorylation enrichment (Fes) | phosphorylation enrichment (Fyn) | phosphorylation enrichment (Hck) | phosphorylation enrichment (Jak2) | phosphorylation enrichment (MERTK) | phosphorylation enrichment (c-Abl (mouse)) | phosphorylation enrichment (c-Src)
12 | 1.04 | 0.919 | 0.557 | RPSELYFSKIG [SMG1_Y2253_YF] | 0.605 | 0.49 | 0.457 | 0.641 | 0.654 | 0.421 | 0.671 | 0.546 | 1.74 | 0.51 | 0.791 | 0.687 | 0.623
13 | 1.06 | 2.51 | 5.74 | RPSELYYSKIS [SMG1_Y2253_G2258S] | 1.79 | 2.17 | 1.31 | 5.05 | 3.5 | 2.25 | 1.02 | 1.4 | 11.1 | 1.05 | 14.6 | 0.926 | 2.96
14 | 0.841 | 1.12 | 0.539 | RPYVYYYSYLL [PTEN_Y177_R173P] | 1.51 | 2.64 | 1.39 | 7.24 | 4.57 | 0.931 | 1.6 | 1.42 | 2.09 | 2.84 | 5.81 | 1.4 | 2.3
15 | 1.14 | 0.767 | 0.402 | RRQDLYSARDL [SART1_Y249] | 1.45 | 0.576 | 0.367 | 0.586 | 0.615 | 0.401 | 0.744 | 0.972 | 5.63 | 0.663 | 1.55 | 0.525 | 1.21
16 | 0.847 | 0.642 | 0.477 | RSDEDYLFREE [POR_Y573_YF] | 1.47 | 0.865 | 0.964 | 0.914 | 1.34 | 0.891 | 2.36 | 0.768 | 0.983 | 1.66 | 0.592 | 1.31 | 0.836
17 | 0.945 | 0.602 | 0.693 | RSFSPCDFQPC [TNS1_Y796_Y796C_YF] | 0.83 | 0.54 | 0.991 | 0.672 | 0.822 | 0.584 | 0.972 | 0.783 | 0.786 | 0.705 | 0.643 | 0.427 | 0.583
